Results: PMC9402538, “Rational design of a sensitivity-enhanced tracer for discovering efficient APC–Asef inhibitors” (Nature Communications, 2022)
Primed or numbered codes have the meaning given here. [ ]: non-standard residue; d: D form. The star is where a group is joined. FITC = O=C1OC2(c3ccc(O)cc3Oc3cc(O)ccc32)c2ccc(NC(=S)*)cc21; Phe(4-tBu) = CC(C)(C)c1ccc(C[C@H](N)C(=O)O)cc1; Bpa = N[C@@H](Cc1ccc(C(=O)c2ccccc2)cc1)C(=O)O; Ala(cPent) = N[C@@H](CC1CCCC1)C(=O)O; FITC′ = fluorescein isothiocyanate; hLeu = CC(C)CC[C@H](N)C(=O)O; 2Furoyl = O=C(c1ccco1)*; Cbz = O=C(OCc1ccccc1)*; Bz = O=C(c1ccccc1)*

B1: tracer 7 (peptide)
peptide: Cbz-AGESLYEK(FITC)-NH2
notes: designed from the Asef hot spot 181-187; the systematic name on D1:p12 gives (R) at the lysine carbon; source: synthetic peptide (general procedure B; FITC-labeled tracer peptides obtained from Changzhou Kanglong Biotech)
B2: tracer 11 (peptide)
peptide: Cbz-AGESLYEGGGGGGGK(FITC′)-NH2
notes: source: synthetic peptide (general procedure B; FITC-labeled tracer peptides obtained from Changzhou Kanglong Biotech)
B3: tracer 9 (peptide)
peptide: Cbz-AGESLYENELK(FITC′)-NH2
notes: as for B2
B4: tracer 2 (Ac–GGAGEALAINELISDGK[FITC]–NH2) (peptide)
peptide: Ac-GGAGEALAINELISDGK(FITC′)-NH2
notes: designed from tracer 1 (Asef stretch) by changing residues of the hot spot GGEQLAI; source: synthetic peptide, bought: Changzhou Kanglong Biotech Ltd
B5: tracer 6 (Z–AGESLYENELISDGK[FITC]–NH2) (peptide)
peptide: Cbz-AGESLYENELISDGK(FITC′)-NH2
notes: tracer 3 with its first two residues GG replaced by a benzyloxycarbonyl (Z) group; source: synthetic peptide, bought: Changzhou Kanglong Biotech Ltd
B6: tracer 12 (peptide)
peptide: Cbz-AGESLYEGGGGGK(FITC′)-NH2
notes: as for B2
B7: MAI-457 (peptide)
chain: Bz-AGESLY[Bpa]-NH2
SMILES: CC(C)C[C@H](NC(=O)[C@H](CO)NC(=O)[C@H](CCC(=O)O)NC(=O)CNC(=O)[C@H](C)NC(=O)c1ccccc1)C(=O)N[C@@H](Cc1ccc(O)cc1)C(=O)N[C@@H](Cc1ccc(C(=O)c2ccccc2)cc1)C(N)=O
B8: tracer 7 (Z–AGESLYEK[FITC]–NH2) (peptide)
peptide: Cbz-AGESLYEK(FITC)-NH2
notes: tracer 6 with a shortened linker; source: synthetic peptide, bought: Changzhou Kanglong Biotech Ltd
B9: APC W593A, N641A (domain or fragment)
chain: RLTSHLGTKVEMVYSLLSMLGTHDKDDMSRTLLAMSSSQDSCISMRQSGCLPLLIQLLHGNDKDSVLLGNSRGSKEARARASAALHNIIHSQPDDKRGRREIRVLHLLEQIRAYCETCWEWQEAHEPGMDQDKNPMPAPVEHQICPAVCVLMKLSFDEEHRHAMNELGGLQAIAELLQVDCEMYGLTNDHYSITLRRYAGMALTNLTFGDVANKATLCSMKGCMRALVAQLKSESEDLQQVIASVLRNLSWRADVNSKKTLREVGSVKALMECALEVKKESTLKSVLSALANLSAHCTENKADICAVDGALAFLVGTLTYRSQTNTLAIIESGGGILRAVSSLIATNEDHRQILRENNCLQTLLQHLKSHSLTIVSNACGTLWNLSARNPKDQEALWDMGAVSMLKNLIHSKHKMIAMGSAAALRNLMANRPAKYKD
B10: tracer 8 (peptide)
peptide: Cbz-AGESLYENELISK(FITC′)-NH2
notes: as for B2
B11: MAI-466 (peptide)
chain: 2Furoyl-AGESLY[Phe(4-tBu)]-NH2
SMILES: CC(C)C[C@H](NC(=O)[C@H](CO)NC(=O)[C@H](CCC(=O)O)NC(=O)CNC(=O)[C@H](C)NC(=O)c1ccco1)C(=O)N[C@@H](Cc1ccc(O)cc1)C(=O)N[C@@H](Cc1ccc(C(C)(C)C)cc1)C(N)=O
B12: tracer 13 (peptide)
peptide: Cbz-AGESLYEGGGK(FITC′)-NH2
notes: as for B2
B13: tracer 1 (Ac–GGGGEQLAINELISDGK[FITC]–NH2) (peptide)
peptide: Ac-GGGGEQLAINELISDGK(FITC)-NH2
notes: stretch of Asef (Rho guanine nucleotide exchange factor 4); lysine that carries FITC; source: synthetic peptide, bought: Changzhou Kanglong Biotech Ltd
B14: tracer 3 (Ac–GGAGESLYENELISDGK[FITC]–NH2) (peptide)
peptide: Ac-GGAGESLYENELISDGK(FITC′)-NH2
notes: as for B4
B15: tracer 4 (Ac–YGAGESLYENELISDGK[FITC]–NH2) (peptide)
peptide: Ac-YGAGESLYENELISDGK(FITC′)-NH2
notes: tracer 3 with its first residue replaced; source: synthetic peptide, bought: Changzhou Kanglong Biotech Ltd
B16: tracer 5 (Ac–EGAGESLYENELISDGK[FITC]–NH2) (peptide)
peptide: Ac-EGAGESLYENELISDGK(FITC′)-NH2
notes: as for B15
B17: MAI-461 (peptide)
chain: Bz-AGES[Ala(cPent)]YE-NH2
SMILES: C[C@H](NC(=O)c1ccccc1)C(=O)NCC(=O)N[C@@H](CCC(=O)O)C(=O)N[C@@H](CO)C(=O)N[C@@H](CC1CCCC1)C(=O)N[C@@H](Cc1ccc(O)cc1)C(=O)N[C@@H](CCC(=O)O)C(N)=O
B18: tracer 10 (peptide)
peptide: Cbz-AGESLYENK(FITC′)-NH2
notes: as for B2
B19: tracer 14 (peptide)
peptide: Cbz-AGESLYEGK(FITC′)-NH2
notes: as for B2

What was measured:
Details in all cases: both partners purified
APC (303-739) [1] = biological target: T1, APC (303-739) (UniProt P25054 303-739); test: fluorescence polarisation; competition with tracer 1: APC (303-739) 1.0 μM and tracer 1 20 nM (Table 2), serial dilution of peptide
T1 construct: adenomatous polyposis coli (APC), residues 303-739; pET28a construct; also called APC WT; adenomatous polyposis coli; source: E. coli BL21 (DE3), purified (Ni-NTA)
T1 sequence (looked up): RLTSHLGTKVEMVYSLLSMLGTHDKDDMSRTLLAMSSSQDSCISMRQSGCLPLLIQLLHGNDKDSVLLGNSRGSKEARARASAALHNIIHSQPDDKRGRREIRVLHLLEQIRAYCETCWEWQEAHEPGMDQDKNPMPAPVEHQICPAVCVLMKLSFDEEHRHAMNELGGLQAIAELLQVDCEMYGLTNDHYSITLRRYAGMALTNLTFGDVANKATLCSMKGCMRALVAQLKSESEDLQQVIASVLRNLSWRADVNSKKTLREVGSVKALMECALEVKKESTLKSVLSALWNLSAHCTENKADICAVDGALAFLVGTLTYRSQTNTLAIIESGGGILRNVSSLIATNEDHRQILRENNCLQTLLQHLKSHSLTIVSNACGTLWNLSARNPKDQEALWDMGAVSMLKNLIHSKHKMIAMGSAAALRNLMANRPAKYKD

APC (303-739) [2] = biological target: T1, APC (303-739); test: fluorescence polarisation; competition with tracer 7: 25 nM APC (303-739), serial dilution of peptide, 20 nM tracer 7; 50 mM HEPES pH 7.5, 300 mM NaCl, 1 mM EDTA, 1 mM DTT; room temperature
APC (303-739) [3] = biological target: T1, APC (303-739); test: ITC; APC protein in the cell at 10-20 μM, peptide injected at 100-200 μM; 50 mM HEPES pH 7.5, 300 mM NaCl, 1 mM EDTA; 30 °C; single-site model
APC (303-739) [4] = biological target: T1, APC (303-739); test: fluorescence polarisation; direct binding: tracer fixed at 20 nM, range of concentrations of APC (303-739), read after 1.5 h; EC50 by nonlinear regression
APC (303–739) [5] = biological target: T2, APC (303–739) (UniProt P25054 303-739); test: fluorescence polarisation; direct binding: tracer fixed at 20 nM, a range of concentrations of APC (303–739), read after 1.5 h; EC50 by nonlinear regression
T2 construct: adenomatous polyposis coli (APC), residues 303–739; The methods name this construct for FP and SPR; the ITC methods say only 'APC protein'; Plasmid was a gift (Dr. Geng Wu); pET28a; also called APC WT; adenomatous polyposis coli; source: E. coli BL21 (DE3), purified (Ni-NTA)
T2 sequence (looked up): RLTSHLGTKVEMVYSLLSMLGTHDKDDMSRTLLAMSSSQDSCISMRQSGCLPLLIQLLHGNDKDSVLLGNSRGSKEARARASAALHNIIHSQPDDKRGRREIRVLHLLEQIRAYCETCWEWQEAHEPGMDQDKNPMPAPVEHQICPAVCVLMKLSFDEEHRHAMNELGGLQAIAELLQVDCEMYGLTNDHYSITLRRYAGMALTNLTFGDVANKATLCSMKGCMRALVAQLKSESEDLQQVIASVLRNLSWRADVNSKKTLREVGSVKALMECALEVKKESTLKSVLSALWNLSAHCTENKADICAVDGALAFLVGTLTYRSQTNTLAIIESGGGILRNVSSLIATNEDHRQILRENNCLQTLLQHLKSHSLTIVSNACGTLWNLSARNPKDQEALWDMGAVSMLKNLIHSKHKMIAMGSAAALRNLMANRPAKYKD

APC (303–739) [6] = biological target: T2, APC (303–739); test: ITC; MicroCal ITC200, 30 °C; 50 mM HEPES pH 7.5, 300 mM NaCl, 1 mM EDTA; APC in the cell at 10–20 μM, peptide injected at 100–200 μM; single-site model
MAI-516 = biological target: T3, MAI-516 (N-terminal 4-methoxy-phenyl group (R^1)); test: as above
T3 construct: peptidomimetic; the text names its residues A181, G182, E183, S184, L185 and Y186 (Asef numbering); source: synthetic peptide (Supplementary Methods)

Binder | IC50 (APC (303-739) [1]) [nM] | IC50 (APC (303-739) [2]) [nM] | also measured
Bz-AGESLYE-NH2 [MAI-467] | 820 ± 300 | 320 ± 7 | 
{furan‑2‑carbonyl}-AGESLY[Bpa]-NH2 [MAI-454] | 480 ± 150 | 280 ± 10 | 
B1 |  |  | stoichiometry N (APC (303-739) [3]): 1.6
{pyrimidine‑4‑carbonyl}-AGESLYE-NH2 [MAI-464] | 740 ± 160 | 220 ± 10 | 
B2 |  |  | EC50 (APC (303-739) [4]): 53 nM
B3 |  |  | EC50 (APC (303-739) [4]): 47 nM
B4 |  |  | EC50 (APC (303–739) [5]): 180 nM
{benzofuran‑2‑carbonyl}-AGESLYE-NH2 [MAI-453] | 460 ± 140 | 260 ± 10 | 
Bz-AGESLY[dE]-NH2 [MAI-465] | 750 ± 150 | 1000 ± 30 | 
B5 |  |  | EC50 (APC (303–739) [5]): 40 nM
B6 |  |  | EC50 (APC (303-739) [4]): 51 nM
B7 | 590 ± 200 | 92 ± 3 | 
{oxazole‑5‑carbonyl}-AGESLYE-NH2 [MAI-460] | 620 ± 190 | 550 ± 9 | 
{2‑chloropyrimidine‑4‑carbonyl}-AGESLYE-NH2 [MAI-459] | 600 ± 120 | 840 ± 30 | 
Cbz-AGES[hLeu]YE-NH2 [MAI-426] | 840 ± 190 | 1200 ± 60 | 
B8 |  |  | Kd (APC (303–739) [6]): 78 nM; EC50 (APC (303–739) [5]): 16 nM
B9 |  |  | Kd (MAI-516): 860 nM
B10 |  |  | EC50 (APC (303-739) [4]): 41 nM
B11 | 810 ± 200 | 940 ± 30 | 
B12 |  |  | EC50 (APC (303-739) [4]): 48 nM
{morpholine‑4‑carbonyl}-AGESLYE-NH2 [MAI-451] | 390 ± 120 | 270 ± 5 | 
B13 |  |  | Kd (APC (303–739) [6]): 580 nM; EC50 (APC (303–739) [5]): 540 nM
B14 |  |  | EC50 (APC (303–739) [5]): 68 nM
B15 |  |  | EC50 (APC (303–739) [5]): 48 nM
B16 |  |  | EC50 (APC (303–739) [5]): 46 nM
B17 | 630 ± 200 | 80 ± 3 | 
B18 |  |  | EC50 (APC (303-739) [4]): 52 nM
B19 |  |  | EC50 (APC (303-739) [4]): 50 nM
{oxazole‑2‑carbonyl}-AGESLYE-NH2 [MAI-455] | 530 ± 120 | 860 ± 30 | 
{2‑(methylthio)pyrimidine‑4‑carbonyl}-AGESLYE-NH2 [MAI-456] | 570 ± 120 | 990 ± 60 | 
